We go through 12 molecules from EP4585619A1 (Cichlid Inc., dated 2025).

In assay [1] the target is T1, human VISTA protein overexpressed in the NIH/3T3 cell line (human, UniProt Q9H7M9 33-311).
T1 construct: whole, on cells; Gene cloned into pCMV3-C-FLAG (Sino Biological), so a C-terminal FLAG tag is likely; On whole cells in ELISA and flow cytometry; as sonicated lysate in immunoprecipitation; as reduced, boiled RIPA lysate in the western blot; also called VISTA/NIH/3T3 cell line; VISTA-expressing cell line
T1 sequence (looked up): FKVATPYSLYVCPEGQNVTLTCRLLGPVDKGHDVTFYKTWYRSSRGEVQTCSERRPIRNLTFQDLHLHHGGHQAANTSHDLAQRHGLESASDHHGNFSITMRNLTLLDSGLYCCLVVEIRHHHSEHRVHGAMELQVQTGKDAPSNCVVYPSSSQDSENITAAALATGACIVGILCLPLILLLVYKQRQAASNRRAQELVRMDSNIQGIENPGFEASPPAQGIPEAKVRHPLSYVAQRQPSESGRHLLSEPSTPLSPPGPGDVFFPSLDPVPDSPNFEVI
As to the kind of experiment: cell ELISA of scFv on VISTA-expressing NIH/3T3 cells, anti-HA HRP.

Assay [2] deals with T2, human VISTA protein (hVISTA-Fc, R&D Systems, Cat. No. 7126-B7) (human, UniProt Q9H7M9 33-194).
T2 construct: Bought recombinant protein; not shown: Fc part of the bought fusion protein
T2 sequence (looked up): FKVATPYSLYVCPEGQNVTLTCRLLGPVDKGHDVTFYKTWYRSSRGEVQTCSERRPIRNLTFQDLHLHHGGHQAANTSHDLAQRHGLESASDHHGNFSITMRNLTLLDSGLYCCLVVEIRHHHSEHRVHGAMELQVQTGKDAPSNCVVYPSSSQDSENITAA
Put plainly: ELISA on coated hVISTA-Fc, antibody at 100 ng per well.

Assay [3] concerns the target T3, mouse VISTA protein (mVISTA-Fc, R&D Systems, Cat. No. 7005-B7) (mouse, UniProt Q9D659 33-191).
T3 construct: Bought recombinant protein; not shown: Fc part of the bought fusion protein
T3 sequence (looked up): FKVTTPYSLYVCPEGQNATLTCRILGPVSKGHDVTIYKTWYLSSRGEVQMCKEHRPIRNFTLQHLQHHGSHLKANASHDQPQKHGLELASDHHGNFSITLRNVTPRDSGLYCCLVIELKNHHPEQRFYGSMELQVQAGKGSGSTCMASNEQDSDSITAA
As to the kind of experiment: ELISA on coated mVISTA-Fc.

B1: 4H2 scFv (scFv, V domains shown)
VH: EVQLLESGGGLVQPGGSLRLSCAASGFTFSTAWMSWVRQAPGKGLEWVSRVNPSDSHTDYSPSFQDRFTISRDNSKNTLYLQMNSLRAEDTAVYYCARVPPGYGFDIWGQGTLVTVSS
VL: EIVLTQSPGTLSLSPGERATLSCQASQDITNYLNWYQQKPGQAPRLLIYDASNRATGIPDRFSGSGSGTDFTLTISRLEPEDFAVYYCQQSYSTPFTFGQGTKVEIK
notes: One-chain scFv with an HA tag from a synthetic human scFv library, made in E. coli
With B1, the binding result in assay [1] is listed as “binds”.

B2: 4A2 full IgG1 antibody (antibody, V domains shown)
VH: EVQLLESGGGLVQPGGSLRLSCAASGFTFSNYAMSWVRQAPGKGLEWVSEISHSGTTNYNPSLKSRFTISRDNSKNTLYLQMNSLRAEDTAVYYCTRAIWGFDYWGQGTLVTVSS
VL: QSVLTQPPSASGTPGQRVTISCSRENIGSRSVHWYQQLPGTAPKLLIYDNNERASGVPNRFSGSKSGTSASLAISGLRSEDEADYYCQAWDSSTAVFGGGTKLTVLR
notes: scFv clone converted to full IgG1, made in CHO-S cells; also called 4A2 antibody; anti-VISTA antibody
For B2, the binding result is on record as “binds” in assay [2] and “no binding (tested: 100 ng per well)” in assay [3].

B3: 4A2 scFv (scFv, V domains shown)
VH: EVQLLESGGGLVQPGGSLRLSCAASGFTFSNYAMSWVRQAPGKGLEWVSEISHSGTTNYNPSLKSRFTISRDNSKNTLYLQMNSLRAEDTAVYYCTRAIWGFDYWGQGTLVTVSS
VL: QSVLTQPPSASGTPGQRVTISCSRENIGSRSVHWYQQLPGTAPKLLIYDNNERASGVPNRFSGSKSGTSASLAISGLRSEDEADYYCQAWDSSTAVFGGGTKLTVL
notes: as for B1
Take B3: the binding result in assay [1] is listed as “binds”.

B4: 4F2 scFv (scFv, V domains shown)
VH: EVQLLESGGGLVQPGGSLRLSCAASGFTFSDYYMHWVRQAPGKGLEWVSEIIPIFDTANYAQKFQDRFTISRDNSKNTLYLQMNSLRAEDTAVYYCARSTGDYFDYWGQGTLVTVSS
VL: QSVLTQPPSASGTPGQRVTISCSGDKLGNKYTSWYQQLPGTAPKLLIYDNNKRPSGVPDRFSGSKSGTSASLAISGLRSEDEADYYCGTWDSSLSAYVFGGGTKLTVL
notes: as for B1
With B4, the binding result in assay [1] is recorded as “binds”.

B5: 4F2 full IgG1 antibody (antibody, V domains shown)
VH: EVQLLESGGGLVQPGGSLRLSCAASGFTFSDYYMHWVRQAPGKGLEWVSEIIPIFDTANYAQKFQDRFTISRDNSKNTLYLQMNSLRAEDTAVYYCARSTGDYFDYWGQGTLVTVSS
VL: QSVLTQPPSASGTPGQRVTISCSGDKLGNKYTSWYQQLPGTAPKLLIYDNNKRPSGVPDRFSGSKSGTSASLAISGLRSEDEADYYCGTWDSSLSAYVFGGGTKLTVLR
notes: scFv clone converted to full IgG1, made in CHO-S cells; also called anti-VISTA antibody
Regarding B5, the binding result is given as “binds” in assay [2] and “no binding (tested: 100 ng per well)” in assay [3].

B6: 4D2 scFv (scFv, V domains shown)
VH: EVQLLESGGGLVQPGGSLRLSCAASGFTFSSYWIAWVRQAPGKGLEWVSTISGSGGYTYYAESVKGRFTISRDNSKNTLYLQMNSLRAEDTAVYYCARDSSGWLNYWGQGTLVTVSS
VL: EIVLTQSPGTLSLSPGERATLSCRASQSITSHLAWYQQKPGQAPRLLIYDASNRATGIPDRFSGSGSGTDFTLTISRLEPEDFAVYYCQQYNNWPPITFGQGTKVEIK
notes: as for B1
Regarding B6, the binding result in assay [1] is “binds”.

B7: 4D2 full IgG1 antibody (antibody, V domains shown)
VH: EVQLLESGGGLVQPGGSLRLSCAASGFTFSSYWIAWVRQAPGKGLEWVSTISGSGGYTYYAESVKGRFTISRDNSKNTLYLQMNSLRAEDTAVYYCARDSSGWLNYWGQGTLVTVSS
VL: EIVLTQSPGTLSLSPGERATLSCRASQSITSHLAWYQQKPGQAPRLLIYDASNRATGIPDRFSGSGSGTDFTLTISRLEPEDFAVYYCQQYNNWPPITFGQGTKVEIKR
notes: as for B5
On to B7, for which the values for the binding result in assay [2] and in assay [3] were “binds” and “no binding (tested: 100 ng per well)”, respectively.

B8: 4A3 full IgG1 antibody (antibody, V domains shown)
VH: EVQLLESGGGLVQPGGSLRLSCAASGFTFSNYYMHWVRQAPGKGLEWVSSISFTGSTSYNPSLKSRFTISRDNSKNTLYLQMNSLRAEDTAVYYCARLGIPFFTYLDYWGQGTLVTVSS
VL: QSVLTQPPSASGTPGQRVTISCGGNNIGSKSVHWYQQLPGTAPKLLIYEDTERPSGVSDRFSGSKSGTSASLAISGLRSEDEADYYCQAWDSSTVVFGGGTKLTVLR
notes: as for B5
For the molecule B8, the figures for the binding result in assay [2] and in assay [3] were “binds” and “no binding (tested: 100 ng per well)”, respectively.

B9: 4A3 scFv (scFv, V domains shown)
VH: EVQLLESGGGLVQPGGSLRLSCAASGFTFSNYYMHWVRQAPGKGLEWVSSISFTGSTSYNPSLKSRFTISRDNSKNTLYLQMNSLRAEDTAVYYCARLGIPFFTYLDYWGQGTLVTVSS
VL: QSVLTQPPSASGTPGQRVTISCGGNNIGSKSVHWYQQLPGTAPKLLIYEDTERPSGVSDRFSGSKSGTSASLAISGLRSEDEADYYCQAWDSSTVVFGGGTKLTVL
notes: as for B1
In the case of B9, in assay [1], the binding result is given as “binds”.

B10: 4G3 full IgG1 antibody (antibody, V domains shown)
VH: EVQLLESGGGLVQPGGSLRLSCVASGFTFSEKSIHWVRQAPGKGLEWVSGTSANTGNTYYADSVKGRFTISRDNSKNTLYLQMNSLRAEDTAVYYCAHHNWAGYFDYWGQGTLVTVSS
VL: EIVLTQSPGILSLSPGERATLSCQASHAISNYINWYQQKPGQAPRLLIYDASNRATGIPDRFSGSGSGTDFTLTISRLEPEDFAVYYCQQSNSFPYTFGQGTKVEIKR
notes: as for B5
With B10, the binding result in assay [2] was “binds”; in assay [3] it was “no binding (tested: 100 ng per well)”.

B11: 4G3 scFv (scFv, V domains shown)
VH: EVQLLESGGGLVQPGGSLRLSCVASGFTFSEKSIHWVRQAPGKGLEWVSGTSANTGNTYYADSVKGRFTISRDNSKNTLYLQMNSLRAEDTAVYYCAHHNWAGYFDYWGQGTLVTVSS
VL: EIVLTQSPGILSLSPGERATLSCQASHAISNYINWYQQKPGQAPRLLIYDASNRATGIPDRFSGSGSGTDFTLTISRLEPEDFAVYYCQQSNSFPYTFGQGTKVEIK
notes: as for B1
On to B11, for which the binding result in assay [1] is on record as “binds”.

B12: 4H2 full IgG1 antibody (antibody, V domains shown)
VH: EVQLLESGGGLVQPGGSLRLSCAASGFTFSTAWMSWVRQAPGKGLEWVSRVNPSDSHTDYSPSFQDRFTISRDNSKNTLYLQMNSLRAEDTAVYYCARVPPGYGFDIWGQGTLVTVSS
VL: EIVLTQSPGTLSLSPGERATLSCQASQDITNYLNWYQQKPGQAPRLLIYDASNRATGIPDRFSGSGSGTDFTLTISRLEPEDFAVYYCQQSYSTPFTFGQGTKVEIKR
notes: as for B5
For B12, the binding result in assay [2] is “binds”; in assay [3], “no binding (tested: 100 ng per well)”.
